Substitutions are numbered along the chain they refer to. Numbers in names are those of the source.
B1: NtHPPDm-F372A-02: nucleotide sequence encoding Nicotiana tabacum HPPD with F372A; vector DBN11751 (nucleic acid)
DNA: ATGGGGAAGCTGGAAACCGTCACTACCACCTCGGCGGCGGCTGCTGATGATTCATCGGAATTAACAACCAACTTCAAGTTGGTTGGTTTCAAAAATTTCATCAGAACAAACCCAAGGTCTGATTTCTTCTCCGTCAAGAGCTTCCACCACATTGAATTCTGGTGCGGTGACGCAACTAACACAGCGCGCCGCTTCTCATGGAGCCTAGGGATGCCAATTGCAGCTAAGAGTGATCTTTCAACAGGAAACAGCGTGCACGCCTCCTACCTCCTCCGGCCCGTAAGCGGTTCTTTACAGTTCCTGTTTACAGCACCATATTCACCTTCTATTTCGACTCCTAGTTCAGCTGCAATCCCATCTTTTTCCACATCTACACATAGGTCTTTCACTACAACACATGGACTGGGTGTTCGTGCCGTCGCCCTCGAGGTGGAGAATGCTTATACTGCCTTCAGTGCTTCTGTCTCCAGAGGCGCCAAGCCAATGTTTGAACCTGTGACAATTGATGAACAAGTAGCAATGGCTGAGGTTCATTTGTACGGCGATGTTGTGCTGCGATTTGTTTCTTATCTCAAGGACGCCGACAACCTGGTCTTCCTGCCGGGGTTTGAGGCCATGGATGAAACTGCTAGTTACAAAGAACTTGATTATGGAATACGGCGTTTGGATCATGCTGTGGGCAATGTTCCAGAACTCGGCCCGGTAGTTGATTACATCAAGAGGTTTACTGGATTTCATGAATTTGCAGAGTTTACCGCTGAAGATGTGGGAACTGCGGAAAGTGGGCTAAACTCCATGGTTCTTGCGAACAATGATGAGACTGTGCTCCTCCCTCTGAATGAGCCTGTTTATGGCACCAAAAGAAAATCTCAGATACAAACATATCTTGAGCATAATGAAGGAGCTGGGGTGCAGCACCTTGCTCTTGTTACTGAAGACATCTTTAAGACTTTGACAGAGATGAGGAAGAGAAGTGGAGTTGGAGGTTTTGAGTTCATGCCTTCCCCCCCGCCGACCTACTACAAGAATTTGAAGAACAGGGCTGGTGACGTCCTCTCAGACGAGCAGATTTTGGCTTGTGAGGAGCTTGGCATCTTGGTAGACCGGGACGACCAGGGGACGCTTCTCCAAATTGCCACAAAACCCGTCGGGGACCGCCCCACCATATTTATTGAGATCATCCAGAGGATAGGCTGCATGCTTAAAGATGGAAAAGGTCAAGTGTACCAGAAGGGTGGTTGTGGTGGGTTTGGCAAAGGAAATTTTTCTGAGCTGTTCAGAAGCATAGAAGAATATGAGAAGACACTGGAAGCAAAACAAGCAAATCAAGTTGCGGCCGCGTGA
modifications: NtHPPDm-F372A-02 Nucleotide Sequence
notes: vector DBN11751
B2: NtHPPDm-F383W-02: nucleotide sequence encoding Nicotiana tabacum HPPD with F383W; vector DBN11752 (nucleic acid)
DNA: B1 DNA with G1135T, C1136T, T1169G, T1170G
modifications: NtHPPDm-F383W-02 Nucleotide Sequence
notes: vector DBN11752

What was measured:
Format in all cases: in vivo
[1] = test system: Arabidopsis thaliana T1 plants; assay: Topramezone tolerance of transgenic Arabidopsis thaliana T1 plants (spray, bleached leaf area grade, damage score); details: 7 DAT, Table 4; for Classification and statistics of the grade of pesticide damage: Grade 0 / Classification and statistics of the grade of pesticide damage: Grade 1 / Classification and statistics of the grade of pesticide damage: Grade 2 / Classification and statistics of the grade of pesticide damage: Grade 3: number of plants; for Scores: pesticide damage score 0-100
Summary of the method: (§1)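 Damage graded 0–3 from the proportion of bleached leaf area 7 days after spraying. Plants were glufosinate-selected T1 lines, 18 days after sowing, plus vector and wild-type controls. Rates: mesotrione 52.5–420, isoxaflutole 35–280, topramezone 25–200 g ai/ha, with water (0×).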

[2] = test system: Arabidopsis thaliana T1 plants; assay: Isoxaflutole tolerance of transgenic Arabidopsis thaliana T1 plants (spray, bleached leaf area grade, damage score); design: Scores (pesticide damage): scale not given here; details: spray, Arabidopsis thaliana T1 plants; for Classification and statistics of the grade of pesticide damage: Grade 0 (number of plants) / Classification and statistics of the grade of pesticide damage: Grade 1 (number of plants) / Classification and statistics of the grade of pesticide damage: Grade 2 (number of plants) / Classification and statistics of the grade of pesticide damage: Grade 3 (number of plants): 16 plants
Summary of the method: as §1

[3] = test system: Arabidopsis thaliana T1 plants; assay: Mesotrione tolerance of transgenic Arabidopsis thaliana T1 plants (spray, bleached leaf area grade, damage score); design: Scores: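 damage score 0-100 computed as Σ(N×S)/(T×M)×100 over grades 0-3 with higher meaning more damage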; details: Arabidopsis thaliana T1 plants; for Grade 0 (classification and statistics of the grade of pesticide damage; number of plants) / Grade 1 (classification and statistics of the grade of pesticide damage; number of plants) / Grade 2 (classification and statistics of the grade of pesticide damage; number of plants) / Grade 3 (classification and statistics of the grade of pesticide damage; number of plants): 16 plants
Summary of the method: as §1

[4] = isoxaflutole 35 g ai/ha (0.5x field concentration)
[5] = isoxaflutole 70 g ai/ha (1x field concentration)

Molecule	Classification and statistics of the grade of pesticide damage: Grade 0 ([1]; topramezone 25 g ai/ha (1×))	Classification and statistics of the grade of pesticide damage: Grade 1 ([1]; topramezone 25 g ai/ha (1×))	Classification and statistics of the grade of pesticide damage: Grade 2 ([1]; topramezone 25 g ai/ha (1×))	Classification and statistics of the grade of pesticide damage: Grade 3 ([1]; topramezone 25 g ai/ha (1×))	Classification and statistics of the grade of pesticide damage: Grade 0 ([1]; topramezone 100 g ai/ha (4×))	Classification and statistics of the grade of pesticide damage: Grade 1 ([1]; topramezone 100 g ai/ha (4×))	Classification and statistics of the grade of pesticide damage: Grade 2 ([1]; topramezone 100 g ai/ha (4×))	Classification and statistics of the grade of pesticide damage: Grade 3 ([1]; topramezone 100 g ai/ha (4×))	Scores ([1]; topramezone 25 g ai/ha (1×))	Scores ([1]; topramezone 100 g ai/ha (4×))	Resistance evaluation ([1]; topramezone 25 g ai/ha (1×))	Resistance evaluation ([1]; topramezone 100 g ai/ha (4×))	Resistance evaluation [2, 4]	Scores (pesticide damage) [2, 4]	Classification and statistics of the grade of pesticide damage: Grade 0 (number of plants) [2, 4]	Classification and statistics of the grade of pesticide damage: Grade 1 (number of plants) [2, 4]	Classification and statistics of the grade of pesticide damage: Grade 2 (number of plants) [2, 4]	Classification and statistics of the grade of pesticide damage: Grade 3 (number of plants) [2, 4]	Resistance evaluation [2, 5]	Scores (pesticide damage) [2, 5]	further results
B1	0	6	10	0	0	0	0	16	54	100	poorly	non-resistant (non-resistant plants (scores 68-100))	Poorly	54	0	6	10	0	Non-resistant	100	Classification and statistics of the grade of pesticide damage: Grade 0 (number of plants) [2, 5]: 0; Classification and statistics of the grade of pesticide damage: Grade 1 (number of plants) [2, 5]: 0; Classification and statistics of the grade of pesticide damage: Grade 2 (number of plants) [2, 5]: 0; Classification and statistics of the grade of pesticide damage: Grade 3 (number of plants) [2, 5]: 16; Resistance evaluation ([3]; mesotrione 52.5 g ai/ha): Poorly resistant; Scores ([3]; mesotrione 52.5 g ai/ha): 65; Grade 0 (classification and statistics of the grade of pesticide damage; number of plants) ([3]; mesotrione 52.5 g ai/ha): 0; Grade 1 (classification and statistics of the grade of pesticide damage; number of plants) ([3]; mesotrione 52.5 g ai/ha): 2; Grade 2 (classification and statistics of the grade of pesticide damage; number of plants) ([3]; mesotrione 52.5 g ai/ha): 13; Grade 3 (classification and statistics of the grade of pesticide damage; number of plants) ([3]; mesotrione 52.5 g ai/ha): 1; Resistance evaluation ([3]; mesotrione 105 g ai/ha): Non-resistant; Scores ([3]; mesotrione 105 g ai/ha): 100; Grade 0 (classification and statistics of the grade of pesticide damage; number of plants) ([3]; mesotrione 105 g ai/ha): 0; Grade 1 (classification and statistics of the grade of pesticide damage; number of plants) ([3]; mesotrione 105 g ai/ha): 0; Grade 2 (classification and statistics of the grade of pesticide damage; number of plants) ([3]; mesotrione 105 g ai/ha): 0; Grade 3 (classification and statistics of the grade of pesticide damage; number of plants) ([3]; mesotrione 105 g ai/ha): 16
B2	0	0	10	6	0	0	0	16	79	100	non-resistant (non-resistant plants (scores 68-100))	non-resistant (non-resistant plants (scores 68-100))	Non-resistant	88	0	0	6	10	Non-resistant	100	Classification and statistics of the grade of pesticide damage: Grade 0 (number of plants) [2, 5]: 0; Classification and statistics of the grade of pesticide damage: Grade 1 (number of plants) [2, 5]: 0; Classification and statistics of the grade of pesticide damage: Grade 2 (number of plants) [2, 5]: 0; Classification and statistics of the grade of pesticide damage: Grade 3 (number of plants) [2, 5]: 16; Resistance evaluation ([3]; mesotrione 52.5 g ai/ha): Non-resistant; Scores ([3]; mesotrione 52.5 g ai/ha): 100; Grade 0 (classification and statistics of the grade of pesticide damage; number of plants) ([3]; mesotrione 52.5 g ai/ha): 0; Grade 1 (classification and statistics of the grade of pesticide damage; number of plants) ([3]; mesotrione 52.5 g ai/ha): 0; Grade 2 (classification and statistics of the grade of pesticide damage; number of plants) ([3]; mesotrione 52.5 g ai/ha): 0; Grade 3 (classification and statistics of the grade of pesticide damage; number of plants) ([3]; mesotrione 52.5 g ai/ha): 16; Resistance evaluation ([3]; mesotrione 105 g ai/ha): Non-resistant; Scores ([3]; mesotrione 105 g ai/ha): 100; Grade 0 (classification and statistics of the grade of pesticide damage; number of plants) ([3]; mesotrione 105 g ai/ha): 0; Grade 1 (classification and statistics of the grade of pesticide damage; number of plants) ([3]; mesotrione 105 g ai/ha): 0; Grade 2 (classification and statistics of the grade of pesticide damage; number of plants) ([3]; mesotrione 105 g ai/ha): 0; Grade 3 (classification and statistics of the grade of pesticide damage; number of plants) ([3]; mesotrione 105 g ai/ha): 16

— patent publication US20250043302A1, “MUTATED HYDROXYPHENYLPYRUVATE DIOXYGENASE POLYPEPTIDE, AND CODING GENE AND USE THEREOF” (BEIJING DABEINONG BIOTECHNOLOGY CO., LTD., priority 2021, published 2025)
